Measured values taken from paper PMC10184827.

How the values were obtained:
[1] = molecular target: rabbit muscle actin (RMA; α-actin) (rabbit) (UniProt P68135); assay: TIRF microscopy of single filament polymerization; 1 µM total actin monomers with 10% fluorescently labeled RMA; TIRF buffer (20 mM imidazole pH 7.4, 50 mM KCl, 1 mM MgCl2, 1 mM EGTA, 0.2 mM ATP, 10 mM DTT, 40 mM glucose, 0.25% methylcellulose); monomer addition to growing filaments
[2] = molecular target: human β-actin (cytoplasmic actin, ACTB) purified from budding yeast (human) (UniProt P60709)
[3] = molecular target: rabbit muscle actin (RMA; α-actin) (rabbit) (UniProt P68135)
[4] = molecular target: human γ-actin (γ1-actin, cytoplasmic actin, ACTG1) purified from budding yeast (human) (UniProt P63261)

Sequence of mDia1(FH1-C) (amino acids 571–1255) (O08808 571-1255): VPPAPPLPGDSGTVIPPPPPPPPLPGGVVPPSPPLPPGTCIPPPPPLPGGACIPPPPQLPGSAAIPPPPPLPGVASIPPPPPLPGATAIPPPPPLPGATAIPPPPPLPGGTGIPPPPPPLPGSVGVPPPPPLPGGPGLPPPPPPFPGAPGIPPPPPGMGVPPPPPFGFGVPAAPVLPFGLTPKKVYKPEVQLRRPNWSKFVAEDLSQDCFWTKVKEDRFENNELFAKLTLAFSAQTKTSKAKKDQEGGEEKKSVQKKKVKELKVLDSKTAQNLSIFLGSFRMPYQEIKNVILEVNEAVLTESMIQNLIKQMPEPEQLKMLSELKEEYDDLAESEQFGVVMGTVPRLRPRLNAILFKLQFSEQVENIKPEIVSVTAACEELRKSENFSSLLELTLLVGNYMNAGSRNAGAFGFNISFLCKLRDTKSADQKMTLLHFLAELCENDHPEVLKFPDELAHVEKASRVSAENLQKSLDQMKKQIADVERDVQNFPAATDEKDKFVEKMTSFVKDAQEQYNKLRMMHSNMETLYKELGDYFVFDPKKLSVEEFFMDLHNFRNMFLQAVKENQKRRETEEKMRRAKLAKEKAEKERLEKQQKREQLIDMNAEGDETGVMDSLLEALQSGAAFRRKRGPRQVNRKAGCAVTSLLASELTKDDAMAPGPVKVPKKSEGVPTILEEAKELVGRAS

filament elongation rate (subunits s^−1 µM^−1) [1]	Substance	actin filament elongation rate by TIRF microscopy, 1 µM actin with 2 µM PFN1 and 10 nM mDia1(FH1-C) (subunits s^−1 µM^−1) [2]	actin filament elongation rate by TIRF microscopy, 1 µM actin with 2 µM PFN1 and 10 nM mDia1(FH1-C) (subunits s^−1 µM^−1) [3]	actin filament elongation rate by TIRF microscopy, 1 µM actin with 2 µM PFN1 and 10 nM mDia1(FH1-C) (subunits s^−1 µM^−1) [4]
10	rabbit muscle actin (RMA; α-actin) (from UniProt P68135 1-377) (natural protein)	–	–	–
–	mDia1(FH1-C) (amino acids 571–1255) (from UniProt O08808 571-1255) (domain or fragment)	59.3	73.6	61.2
